# Laboratory results: paper PMC2668204 (Cellular signalling, 2009)
# Biological target: venus-labeled Gβγ dimers (venus155–239-Gβ1 with venus1–155-Gγ2) (human, UniProt P62873 1-340; P59768 1-71)
# Assay: FRET or BRET
protein,measurement,value
"masGRK3ct-Rluc8 (domain or fragment, myristoylation directed by the N-terminal mas peptide) MGSSKSKTSNSGIKLLDCDQELYKNFPLVISERWQQEVAETVYEAVNADTDKIEARKRAKNKQLGHEEDYALGRDCIVHGYMLKLGNPFLTQWQRRYFYLFPNRLEWRGEGESRQSLLTMEQIVSVEETQIKDKKCILLRIKGGKQFVLQCESDPEFVQWKKELTETFMEAQRLLRRAPKFLNKSRSAVVELSKPPLCHRNSNGL",adenosine-induced BRET increase (highest relative expression of C-TM-Gα i1),0.025 ± 0.003
same,adenosine-induced BRET increase (lowest relative expression of C-TM-Gα i1),0.05 ± 0.007
